From publication PMC6706469

Key:
[1] = target: P34 (trypanosome-specific protein), endogenous (Trypanosoma brucei (endogenous in T. brucei cells)); experiment: co-IP; whole-cell extract of 3×Ty-TbL11 T. brucei cells, without RNase A; beads with antibody to the target (anti-P34/P37, anti-TbL5 or anti-TbRpf2); anti-Ty Western blot of pellet and supernatant; amount in the pellet relative to pellet plus supernatant
[2] = target: TbL5 (Trypanosoma brucei ribosomal protein L5), endogenous (Trypanosoma brucei (endogenous in T. brucei cells)); experiment: as above
[3] = target: TbRpf2 (Trypanosoma brucei homologue of Rpf2), endogenous (Trypanosoma brucei (endogenous in T. brucei cells)); experiment: as above
[4] = target: P37 (trypanosome-specific protein), endogenous (Trypanosoma brucei (endogenous in T. brucei cells)); experiment: as above
[5] = target: P34 (trypanosome-specific protein), endogenous (Trypanosoma brucei (endogenous in T. brucei cells)); experiment: co-IP; whole-cell extract of 3×Ty-TbL11 T. brucei cells, with RNase A added to digest cellular RNA; beads with antibody to the target (anti-P34/P37, anti-TbL5 or anti-TbRpf2); anti-Ty Western blot of pellet and supernatant; amount in the pellet relative to pellet plus supernatant
[6] = target: TbL5 (Trypanosoma brucei ribosomal protein L5), endogenous (Trypanosoma brucei (endogenous in T. brucei cells)); experiment: as above
[7] = target: TbRpf2 (Trypanosoma brucei homologue of Rpf2), endogenous (Trypanosoma brucei (endogenous in T. brucei cells)); experiment: as above
[8] = target: P37 (trypanosome-specific protein), endogenous (Trypanosoma brucei (endogenous in T. brucei cells)); experiment: as above
[9] = target: Recombinant TbRpf2 (Trypanosoma brucei); experiment: co-IP; in vitro, recombinant TbL11 incubated with the recombinant target, without 5S rRNA; precipitated with antibody to the target; anti-His Western blot; amount in the pellet relative to pellet plus supernatant
[10] = target: Recombinant TbL5 (Trypanosoma brucei); experiment: as above
[11] = target: Recombinant P34 (Trypanosoma brucei); experiment: as above
[12] = target: Recombinant TbRpf2 (Trypanosoma brucei); experiment: co-IP; in vitro, recombinant TbL11 incubated with the recombinant target, with in vitro-transcribed 5S rRNA added; precipitated with antibody to the target; anti-His Western blot; amount in the pellet relative to pellet plus supernatant
[13] = target: Recombinant TbL5 (Trypanosoma brucei); experiment: as above
[14] = target: Recombinant P34 (Trypanosoma brucei); experiment: as above

| fraction in the pellet (pellet relative to pellet plus supernatant) [1] | fraction in the pellet (pellet relative to pellet plus supernatant) [2] | fraction in the pellet (pellet relative to pellet plus supernatant) [3] | fraction in the pellet (pellet relative to pellet plus supernatant) [4] | fraction in the pellet (pellet relative to pellet plus supernatant) [5] | fraction in the pellet (pellet relative to pellet plus supernatant) [6] | fraction in the pellet (pellet relative to pellet plus supernatant) [7] | fraction in the pellet (pellet relative to pellet plus supernatant) [8] | fraction in the pellet (pellet relative to pellet plus supernatant) [9] | fraction in the pellet (pellet relative to pellet plus supernatant) [10] | fraction in the pellet (pellet relative to pellet plus supernatant) [11] | fraction in the pellet (pellet relative to pellet plus supernatant) [12] | fraction in the pellet (pellet relative to pellet plus supernatant) [13] | fraction in the pellet (pellet relative to pellet plus supernatant) [14] | Substance |
| --- | --- | --- | --- | --- | --- | --- | --- | --- | --- | --- | --- | --- | --- | --- |
| 0.16 | 0.53 | 0.07 | 0.16 | 0.53 | 0.67 | 0.58 | 0.53 |  |  |  |  |  |  | 3×Ty-TbL11 (Ty-tagged Trypanosoma brucei ribosomal protein L11) (natural protein) |
|  |  |  |  |  |  |  |  | 0.86 | 0.92 | 0.96 | 0.83 | 0.9 | 0.85 | Recombinant TbL11 (Trypanosoma brucei ribosomal protein L11) (natural protein) |
